Key:
[1] = target: T1, human ILT-2 (LILRB1), complete form expressed at the cell surface (human, UniProt Q8NHL6 24-650); assay: flow cytometry, CHO-ILT2 cells
T1 construct: also called CHO-ILT2; CHO ILT2 cell line

[2] = target: T2, recombinant human ILT2 protein (analyte in SPR and Octet) (human, UniProt Q8NHL6 24-458, limits assumed); assay: BLI (Octet RED96), mAb captured on AMC biosensor, 1:1 model
T2 construct: also called Human ILT2 recombinant proteins

Mutant D4-1B = target: T3, Mutant D4-1B; assay: flow cytometry titration on cells transfected with ILT2 mutant 4-1b
T3 construct: D4 domain point mutant; also called ILT2 mutant 4-1b

Mutant D4-4 = target: T4, Mutant D4-4; assay: flow cytometry titration on cells transfected with ILT2 mutant 4-4
T4 construct: D4 domain point mutant; also called ILT2 mutant 4-4

ILT2 mutant 4-2 = target: T5, ILT2 mutant 4-2 (human, UniProt Q8NHL6 24-650); assay: flow cytometry titration on cells transfected with ILT2 mutant 4-2
T5 construct: Transfected in HEK293T cells
T5 sequence (Q8NHL6 other isoform, or with tags, fused parts or gaps mutant): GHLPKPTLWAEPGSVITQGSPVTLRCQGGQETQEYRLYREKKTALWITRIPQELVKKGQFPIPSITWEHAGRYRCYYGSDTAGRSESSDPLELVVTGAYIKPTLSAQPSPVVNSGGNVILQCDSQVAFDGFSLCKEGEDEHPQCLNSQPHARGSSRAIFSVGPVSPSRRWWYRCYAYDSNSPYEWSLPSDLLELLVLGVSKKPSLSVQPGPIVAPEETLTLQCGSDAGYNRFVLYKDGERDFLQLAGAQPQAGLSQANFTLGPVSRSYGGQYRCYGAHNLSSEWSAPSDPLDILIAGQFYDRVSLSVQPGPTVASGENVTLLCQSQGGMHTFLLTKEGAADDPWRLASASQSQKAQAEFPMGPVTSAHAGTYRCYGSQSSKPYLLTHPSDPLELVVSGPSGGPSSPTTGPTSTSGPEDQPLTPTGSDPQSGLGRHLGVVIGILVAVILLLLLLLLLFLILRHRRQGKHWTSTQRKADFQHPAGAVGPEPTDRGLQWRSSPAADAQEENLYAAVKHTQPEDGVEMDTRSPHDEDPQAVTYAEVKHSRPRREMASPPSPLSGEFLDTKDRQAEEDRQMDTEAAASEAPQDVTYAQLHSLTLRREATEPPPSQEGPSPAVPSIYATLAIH

[3] = target: T2, recombinant human ILT2 protein (analyte …); assay: SPR, mAb captured on Protein-A, monovalent, two state reaction
Protocol: Measurements were performed on a Biacore T200 apparatus (Biacore GE Healthcare) at 25° C. In all Biacore experiments HBS-EP+ (Biacore GE Healthcare) and NaOH 10 mM served as running buffer and regeneration buffer respectively. Sensorgrams were analyzed with Biacore T100 Evaluation software. Protein-A was purchased from (GE Healthcare). Human ILT2 recombinant proteins were cloned, produced and purified at Innate Pharma. Protein-A proteins were immobilized covalently to carboxyl groups in the dextran layer on a Sensor Chip CMS. The chip surface was activated with EDC/NHS (N-ethyl-N′-(3-dimethylaminopropyl) carbodiimidehydrochloride and N-hydroxysuccinimide (Biacore GE Healthcare)). Protein-A was diluted to 10 μg/ml in coupling buffer (10 mM acetate, pH 5.6) and injected until the appropriate immobilization level was reached (i.e. 600 RU). Deactivation of the remaining activated groups was performed using 100 mM ethanolamine pH 8 (Biacore GE Healthcare). […] For blank subtraction, cycles were performed again replacing ILT2 proteins with running buffer. The monovalent affinity analysis was conducted following a regular Capture-Kinetic protocol as recommended by the manufacturer (Biacore GE Healthcare kinetic wizard). […]

T2 sequence (Q8NHL6 24-458 limits assumed): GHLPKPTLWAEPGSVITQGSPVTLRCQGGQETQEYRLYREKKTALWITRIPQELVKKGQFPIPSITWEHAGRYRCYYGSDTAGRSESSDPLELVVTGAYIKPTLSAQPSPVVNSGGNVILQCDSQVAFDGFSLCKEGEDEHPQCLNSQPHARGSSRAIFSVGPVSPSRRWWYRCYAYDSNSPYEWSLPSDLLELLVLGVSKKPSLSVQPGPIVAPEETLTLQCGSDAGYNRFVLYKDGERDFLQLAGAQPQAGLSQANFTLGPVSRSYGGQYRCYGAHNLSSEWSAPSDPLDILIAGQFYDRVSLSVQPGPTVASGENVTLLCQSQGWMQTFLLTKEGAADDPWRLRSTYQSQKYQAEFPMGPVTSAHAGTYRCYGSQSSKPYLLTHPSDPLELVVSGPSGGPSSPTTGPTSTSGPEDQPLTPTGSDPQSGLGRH
T1 sequence (Q8NHL6 24-650): as the sequence (Q8NHL6 other isoform, or with tags, fused parts or gaps mutant) above, with G328W, H330Q, A347R, A349T, S350Y, A355Y counted along it

Binder | EC50 (read off the curve) (Mutant D4-1B) | EC50 (read off the curve) (Mutant D4-4) | koff [3] | also measured
GHI/75 (antibody, V domains shown) VH: EVILVESGGALVRPGGSLKLSCAASGFTFSSNAMSWVRQTPEKRLEWVATISNGGTFTYYPDSVKGRFTISRDNAKNTLYLQMNSLRSEDTAMYYCARHGDGNYGDPLDYWGQGTTLTVSS VL: DIQMTQSPASQSASLGESVTITCLASQTIGTWLAWYQQKPGKSPQLLIYAATNLADGVPSRFSGSGSGTKFSFKISSLQAEDFVSYYCQQLYSTPFTFGSGTKLEIK |  |  |  | EC50 [1]: 5.39 µg/mL; Kd [2]: 28.1 nM; koff [2]: 0.00038 s⁻¹; kon [2]: 13000 M⁻¹ s⁻¹
26D8 (antibody, human IgG1, V domains shown) VH: QVQLQQSGAELVKPGASVKLSCKASGYTFTEHTIHWIKQRSGQGLEWIGWFYPGSGSMKYNEKFKDKATLTADKSSSTVYMELTRLTSEDSAVYFCARHTNWDFDYWGQGTTLTVSS VL: DIVLTQSPASLAVSLGQRATISCKASQSVDYGGDSYMNWYQQKPGQPPKLLIYAASNLESGIPARFSGSGSGTDLTLNIHPVEEDDAAMYYCQQSNEEPWTFGGGTKLEIK | ~0.2 µg/mL |  |  | 
18E1 (antibody, human IgG1, V domains shown) VH: QVQLQQSGAELVKPGASVRLSCKASGYTFTAHTIHWVKQRSGQGLEWIGWLYPGSGSIKYNEKFKDKATLTADKSSSTVYMELSRLTSEDSAVYFCARHTNWDFDYWGQGTTLTVSS VL: NIVLTQSPASLAVSLGQRATISCKASQSVDYGGASYMNWYQQKPGQPPKLLIYAASNLESGIPARFSGSGSGTDLTLNIHPVEEEDAAMYYCQQSNEEPWTFGGGTKLEIK | ~0.3 µg/mL | ~0.3 µg/mL |  | 
27C10 (antibody, human IgG1, V domains shown) VH: EVQLQESGPGLVKPSQSLSLTCSVTGYSITSGYYWNWIRQFPENKLEWMGYIRYDGSNNYNPSLNNRISITRDASKNQFFLKLNSVTTEDTATYYCARGWLLWFYAVDYWGQGTSVTVSS VL: DVVMTQTPLSLPVSLGDQASISCRSSQSIVHTNGNTYLEWYLQKSGQSPKLLIYKVSNRLSGVPDRFSGSGSGTDFTLKISRVEAEDLGIYYCFQGSHVPWTFGGGTKLEIK | ~0.5 µg/mL | ~0.5 µg/mL |  | EC50 (read off the curve) (ILT2 mutant 4-2): ~0.6 µg/mL
3H5 (antibody, human IgG1, V domains shown) VH: QVQLKESGPGLVAPSQSLSITCTVSGFSLTSYGVSWVRQPPGKGLEWLGVIWGDGSTNYHSALISRLSISKDNSKSQVFLKLNSLQTDDTATYYCAKPRWDDYAMDYWGQGTSVTVSS VL: DIQMTQTTSSLSASLGDRVTISCRASQDISNYLNWYQQKPDGTVKLLIYYTSRLHSGVPSRFSGSGSGTDYSLTISNLEQEDIATYFCQQGNTLWTFGGGTKLEIK |  |  | 0.008 s⁻¹ | 
27H5 (antibody, human IgG1, V domains shown) VH: QVQLKESGPGLVAPSQSLSITCTVSGFSLTSYGVSWVRQPPGKGLEWLGVIWGDGNTNYHSALISRLSISKDNSKSQVFLKLNSLQTDDTATYYCARTNWDGWFAYWGQGTLVTVSA VL: DIVMTQSHKFMSTSVGDRVSITCKASQDVGTAVAWYQQKPGQSPKLLIYWASTRHTGVPDRFTGSGSGTDFTLTISNVQSEDLADYFCQQYRSYPLGTFGGGTKLEIK |  |  | 0.1 s⁻¹ | 

Source: patent US20220025045A1 (INNATE PHARMA, published 2022)
